Measured values as given in the supplement of paper PMC9112550, “Optimization of the antimicrobial peptide Bac7 by deep mutational scanning” (BMC Biology, 2022).

System: Escherichia coli TOP10
Test: shrunken log2 fold change of peptide-encoding DNA abundance (4.5 h post-induction vs induction); higher = less antimicrobial activity (less host growth inhibition)
Conditions: time post-induction: 4.5 h; library: site-saturation at positions 5, 18, 19, 20
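Also: peptides expressed intracellularly from a pBAD plasmid library in pooled LB shake-flask culture, induced with 0.3% L-arabinose, DNA abundance read by NGS, three biological replicates, DESeq2 with apeglm shrinkage.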

## RRIRDRPPRLPRPRPRPRFWPRP
  shrunken log2 fold change: 0.935

## RRIRVRPPRLPRPRPRPFFIPRP
  shrunken log2 fold change: -0.265

## RRIRNRPPRLPRPRPRPNYVPRP
  shrunken log2 fold change: -0.0488

## RRIRHRPPRLPRPRPRPACQPRP
  shrunken log2 fold change: 0.0463

## RRIRDRPPRLPRPRPRPAETPRP
  shrunken log2 fold change: 0.0806

## RRIRSRPPRLPRPRPRPYQSPRP
  shrunken log2 fold change: 0.0187

## RRIRLRPPRLPRPRPRPMLYPRP
  shrunken log2 fold change: -0.232

## RRIRIRPPRLPRPRPRPRQCPRP
  shrunken log2 fold change: -0.127

## RRIRTRPPRLPRPRPRPIPFPRP
  shrunken log2 fold change: -0.325

## RRIRNRPPRLPRPRPRPMRGPRP
  shrunken log2 fold change: 0.211

## RRIRYRPPRLPRPRPRPNLRPRP
  shrunken log2 fold change: -0.341

## RRIRHRPPRLPRPRPRPAMLPRP
  shrunken log2 fold change: -0.168

## RRIRIRPPRLPRPRPRPKQIPRP
  shrunken log2 fold change: -0.205

## RRIRSRPPRLPRPRPRPIFQPRP
  shrunken log2 fold change: -0.0307

## RRIRKRPPRLPRPRPRPPMTPRP
  shrunken log2 fold change: -0.00191

## RRIRCRPPRLPRPRPRPMSCPRP
  shrunken log2 fold change: -0.0327

## RRIRWRPPRLPRPRPRPQHCPRP
  shrunken log2 fold change: -0.115

## RRIRMRPPRLPRPRPRPSYCPRP
  shrunken log2 fold change: -0.236

## RRIRYRPPRLPRPRPRPSFKPRP
  shrunken log2 fold change: -0.806

## RRIRSRPPRLPRPRPRPDTRPRP
  shrunken log2 fold change: -0.337

## RRIRTRPPRLPRPRPRPMCMPRP
  shrunken log2 fold change: -0.0542

## RRIRWRPPRLPRPRPRPPKYPRP
  shrunken log2 fold change: -0.163

## RRIRMRPPRLPRPRPRPSMEPRP
  shrunken log2 fold change: 0.484

## RRIRERPPRLPRPRPRPKNRPRP
  shrunken log2 fold change: 0.103

## RRIRYRPPRLPRPRPRPWLEPRP
  shrunken log2 fold change: -0.118

## RRIRGRPPRLPRPRPRPNNTPRP
  shrunken log2 fold change: -0.0658

## RRIRVRPPRLPRPRPRPNEGPRP
  shrunken log2 fold change: -0.00311

## RRIRARPPRLPRPRPRPANMPRP
  shrunken log2 fold change: -0.0999

## RRIRWRPPRLPRPRPRPKANPRP
  shrunken log2 fold change: 0.51

## RRIRHRPPRLPRPRPRPEVRPRP
  shrunken log2 fold change: -0.00149

## RRIRWRPPRLPRPRPRPIHGPRP
  shrunken log2 fold change: 0.0966

## RRIRGRPPRLPRPRPRPPYRPRP
  shrunken log2 fold change: 0.388

## RRIRVRPPRLPRPRPRPHVMPRP
  shrunken log2 fold change: -0.526

## RRIRFRPPRLPRPRPRPDCSPRP
  shrunken log2 fold change: 0.0229

## RRIRRRPPRLPRPRPRPKRCPRP
  shrunken log2 fold change: -0.131

## RRIRFRPPRLPRPRPRPMPQPRP
  shrunken log2 fold change: -0.0791

## RRIRTRPPRLPRPRPRPSEYPRP
  shrunken log2 fold change: -0.0517

## RRIRPRPPRLPRPRPRPEPPPRP
  shrunken log2 fold change: 0.474

## RRIRSRPPRLPRPRPRPQCTPRP
  shrunken log2 fold change: 0.294

## RRIRYRPPRLPRPRPRPNEVPRP
  shrunken log2 fold change: -0.00663

## RRIRDRPPRLPRPRPRPPAMPRP
  shrunken log2 fold change: 0.87

## RRIRTRPPRLPRPRPRPEQRPRP
  shrunken log2 fold change: -0.000852

## RRIRPRPPRLPRPRPRPWGYPRP
  shrunken log2 fold change: -0.0649

## RRIRCRPPRLPRPRPRPSEDPRP
  shrunken log2 fold change: -0.112

## RRIRWRPPRLPRPRPRPQLSPRP
  shrunken log2 fold change: -0.211

## RRIRARPPRLPRPRPRPEREPRP
  shrunken log2 fold change: 1.05

## RRIRGRPPRLPRPRPRPATDPRP
  shrunken log2 fold change: 0.531

## RRIRQRPPRLPRPRPRPVEPPRP
  shrunken log2 fold change: 0.117

## RRIRLRPPRLPRPRPRPWTCPRP
  shrunken log2 fold change: -0.54

## RRIRCRPPRLPRPRPRPSRFPRP
  shrunken log2 fold change: -0.0991

## RRIRYRPPRLPRPRPRPTMDPRP
  shrunken log2 fold change: -0.67

## RRIRGRPPRLPRPRPRPWPKPRP
  shrunken log2 fold change: 0.199

## RRIRERPPRLPRPRPRPSPEPRP
  shrunken log2 fold change: 0.0512

## RRIRMRPPRLPRPRPRPNTCPRP
  shrunken log2 fold change: -0.145

## RRIRFRPPRLPRPRPRPHAQPRP
  shrunken log2 fold change: -0.305

## RRIRWRPPRLPRPRPRPHMGPRP
  shrunken log2 fold change: 0.0771

## RRIRRRPPRLPRPRPRPIIMPRP
  shrunken log2 fold change: -0.444

## RRIRIRPPRLPRPRPRPTAHPRP
  shrunken log2 fold change: -0.313

## RRIRGRPPRLPRPRPRPHSCPRP
  shrunken log2 fold change: 0.153

## RRIRHRPPRLPRPRPRPGWEPRP
  shrunken log2 fold change: 0.274

## RRIRERPPRLPRPRPRPEKHPRP
  shrunken log2 fold change: -0.13

## RRIRKRPPRLPRPRPRPQTPPRP
  shrunken log2 fold change: 1.39

## RRIRERPPRLPRPRPRPKHQPRP
  shrunken log2 fold change: -0.0699

## RRIRLRPPRLPRPRPRPAQYPRP
  shrunken log2 fold change: -0.0702

## RRIRYRPPRLPRPRPRPAQPPRP
  shrunken log2 fold change: -0.0284

## RRIRIRPPRLPRPRPRPDYHPRP
  shrunken log2 fold change: -1.9

## RRIRPRPPRLPRPRPRPFDMPRP
  shrunken log2 fold change: 0.08

## RRIRSRPPRLPRPRPRPHMPPRP
  shrunken log2 fold change: -0.401

## RRIRQRPPRLPRPRPRPLWPPRP
  shrunken log2 fold change: 0.227

## RRIRMRPPRLPRPRPRPRQVPRP
  shrunken log2 fold change: 0.388

## RRIRCRPPRLPRPRPRPPKSPRP
  shrunken log2 fold change: 0.772

## RRIRFRPPRLPRPRPRPNNTPRP
  shrunken log2 fold change: -0.999

## RRIRHRPPRLPRPRPRPYQPPRP
  shrunken log2 fold change: -0.216

## RRIRMRPPRLPRPRPRPIKTPRP
  shrunken log2 fold change: -0.0802

## RRIRVRPPRLPRPRPRPHSVPRP
  shrunken log2 fold change: -0.177

## RRIRGRPPRLPRPRPRPRFKPRP
  shrunken log2 fold change: 0.449

## RRIRFRPPRLPRPRPRPSFYPRP
  shrunken log2 fold change: -0.514

## RRIRGRPPRLPRPRPRPHINPRP
  shrunken log2 fold change: 0.214

## RRIRSRPPRLPRPRPRPAKWPRP
  shrunken log2 fold change: 0.235

## RRIRMRPPRLPRPRPRPGLNPRP
  shrunken log2 fold change: 0.223

## RRIRPRPPRLPRPRPRPLCGPRP
  shrunken log2 fold change: 0.623

## RRIRDRPPRLPRPRPRPEQQPRP
  shrunken log2 fold change: 0.374

## RRIRKRPPRLPRPRPRPASSPRP
  shrunken log2 fold change: 0.0469

## RRIRLRPPRLPRPRPRPSPWPRP
  shrunken log2 fold change: -0.149

## RRIRARPPRLPRPRPRPAKQPRP
  shrunken log2 fold change: -0.197

## RRIRNRPPRLPRPRPRPHNDPRP
  shrunken log2 fold change: -0.395

## RRIRERPPRLPRPRPRPDCWPRP
  shrunken log2 fold change: -0.0875

## RRIRIRPPRLPRPRPRPTRVPRP
  shrunken log2 fold change: 0.167

## RRIRGRPPRLPRPRPRPALVPRP
  shrunken log2 fold change: 1.02

## RRIRERPPRLPRPRPRPAKKPRP
  shrunken log2 fold change: 0.00764

## RRIRKRPPRLPRPRPRPKSLPRP
  shrunken log2 fold change: 0.107

## RRIRYRPPRLPRPRPRPAFDPRP
  shrunken log2 fold change: 0.105

## RRIRGRPPRLPRPRPRPAHKPRP
  shrunken log2 fold change: 0.551

## RRIRERPPRLPRPRPRPPHAPRP
  shrunken log2 fold change: 0.229

## RRIRARPPRLPRPRPRPTYCPRP
  shrunken log2 fold change: -0.119

## RRIRHRPPRLPRPRPRPAVDPRP
  shrunken log2 fold change: 0.0722

## RRIRARPPRLPRPRPRPIAHPRP
  shrunken log2 fold change: 0.13

## RRIRNRPPRLPRPRPRPHHQPRP
  shrunken log2 fold change: -1.12

## RRIRQRPPRLPRPRPRPGFYPRP
  shrunken log2 fold change: 0.116

## RRIRDRPPRLPRPRPRPLRCPRP
  shrunken log2 fold change: 0.177

## RRIRDRPPRLPRPRPRPCFRPRP
  shrunken log2 fold change: -0.157

## RRIRHRPPRLPRPRPRPHTMPRP
  shrunken log2 fold change: -0.0685

## RRIRHRPPRLPRPRPRPECMPRP
  shrunken log2 fold change: -0.0379

## RRIRVRPPRLPRPRPRPVQMPRP
  shrunken log2 fold change: -0.0712

## RRIRERPPRLPRPRPRPTIKPRP
  shrunken log2 fold change: -0.178

## RRIRLRPPRLPRPRPRPPYFPRP
  shrunken log2 fold change: -0.247

## RRIRFRPPRLPRPRPRPSPMPRP
  shrunken log2 fold change: 1.17

## RRIRLRPPRLPRPRPRPAIIPRP
  shrunken log2 fold change: -0.197

## RRIRVRPPRLPRPRPRPCFNPRP
  shrunken log2 fold change: -0.421

## RRIRFRPPRLPRPRPRPSGAPRP
  shrunken log2 fold change: 0.103

## RRIRGRPPRLPRPRPRPISPPRP
  shrunken log2 fold change: -0.0176

## RRIRQRPPRLPRPRPRPVMIPRP
  shrunken log2 fold change: -0.286

## RRIRWRPPRLPRPRPRPLEIPRP
  shrunken log2 fold change: 0.299

## RRIRMRPPRLPRPRPRPCWFPRP
  shrunken log2 fold change: -0.0997

## RRIRVRPPRLPRPRPRPTTFPRP
  shrunken log2 fold change: -0.118

## RRIRDRPPRLPRPRPRPELSPRP
  shrunken log2 fold change: 1.55

## RRIRIRPPRLPRPRPRPHDYPRP
  shrunken log2 fold change: -0.262

## RRIRCRPPRLPRPRPRPAIWPRP
  shrunken log2 fold change: 0.346

## RRIRNRPPRLPRPRPRPTTHPRP
  shrunken log2 fold change: 0.102

## RRIRMRPPRLPRPRPRPNWCPRP
  shrunken log2 fold change: 0.0361

## RRIRWRPPRLPRPRPRPQVTPRP
  shrunken log2 fold change: -0.0309

## RRIRTRPPRLPRPRPRPSHEPRP
  shrunken log2 fold change: -0.299

## RRIRFRPPRLPRPRPRPFLKPRP
  shrunken log2 fold change: -0.145

## RRIRDRPPRLPRPRPRPRLVPRP
  shrunken log2 fold change: 0.314

## RRIRMRPPRLPRPRPRPPHTPRP
  shrunken log2 fold change: 0.824

## RRIRPRPPRLPRPRPRPHTSPRP
  shrunken log2 fold change: -0.622

## RRIRWRPPRLPRPRPRPDTSPRP
  shrunken log2 fold change: 0.0558

## RRIRVRPPRLPRPRPRPHRNPRP
  shrunken log2 fold change: -0.531

## RRIRDRPPRLPRPRPRPANEPRP
  shrunken log2 fold change: 0.0557

## RRIRFRPPRLPRPRPRPPCYPRP
  shrunken log2 fold change: -0.227

## RRIRDRPPRLPRPRPRPQSPPRP
  shrunken log2 fold change: 0.0974

## RRIRGRPPRLPRPRPRPWMWPRP
  shrunken log2 fold change: 0.218

## RRIRRRPPRLPRPRPRPDSRPRP
  shrunken log2 fold change: 0.0229

## RRIRNRPPRLPRPRPRPKPFPRP
  shrunken log2 fold change: -0.104

## RRIRWRPPRLPRPRPRPHYVPRP
  shrunken log2 fold change: -0.113

## RRIRFRPPRLPRPRPRPHQQPRP
  shrunken log2 fold change: 0.0921

## RRIRGRPPRLPRPRPRPEWMPRP
  shrunken log2 fold change: 0.933

## RRIRQRPPRLPRPRPRPSWGPRP
  shrunken log2 fold change: -0.0627

## RRIRMRPPRLPRPRPRPGKRPRP
  shrunken log2 fold change: 0.078

## RRIRRRPPRLPRPRPRPSRNPRP
  shrunken log2 fold change: 0.453

## RRIRQRPPRLPRPRPRPEYHPRP
  shrunken log2 fold change: -0.141

## RRIRQRPPRLPRPRPRPCSIPRP
  shrunken log2 fold change: -0.022

## RRIRHRPPRLPRPRPRPLLHPRP
  shrunken log2 fold change: -0.238

## RRIRMRPPRLPRPRPRPEPPPRP
  shrunken log2 fold change: 1.76

## RRIRCRPPRLPRPRPRPMQIPRP
  shrunken log2 fold change: 0.0467

## RRIRFRPPRLPRPRPRPWQSPRP
  shrunken log2 fold change: 0.146

## RRIRNRPPRLPRPRPRPGKQPRP
  shrunken log2 fold change: -0.406

## RRIRQRPPRLPRPRPRPDVLPRP
  shrunken log2 fold change: 0.0137

## RRIRMRPPRLPRPRPRPRHKPRP
  shrunken log2 fold change: 0.402

## RRIRCRPPRLPRPRPRPKTEPRP
  shrunken log2 fold change: -0.0486
